Experimental data taken from patent US20090068174A1, “THERAPEUTIC ALKALINE PROTEASE COMPOSITIONS AND USE IN FACILITATING THE TRANSPORT OF AGENTS ACROSS THE GASTROINTESTINAL MUCOSAL LINING” (Kansas University Medical Center Research Institute, Inc., priority 2007, published 2009).

Key:
[1] = molecular target: human TNF-α (Homo sapiens, UniProt P01375); experiment: Bioactivity of protease-treated human TNF-α in the C2C12 cell assay (nitrite); format: cell-based; set-up: key to Inactivation of Human TNF-α: +: Indicates that the protease inactivated the cytokine; ^a: Cleavage of the cytokine occurred without inactivation; settings: for Effect on bioactivity of human TNF-α: C2C12 cells costimulated with mouse IFN-γ, nitrite
human TNF-α, sequence (P01375 77-233 limits assumed): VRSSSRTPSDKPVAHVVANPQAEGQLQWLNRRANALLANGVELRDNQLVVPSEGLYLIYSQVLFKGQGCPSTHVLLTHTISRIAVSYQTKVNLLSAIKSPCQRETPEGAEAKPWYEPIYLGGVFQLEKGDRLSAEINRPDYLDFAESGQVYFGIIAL
Experimental: Effects of purified A. oryzae proteases on the bioactivity of human TNF-α (A) protease powder prepared according to Example 1 (preparation); (B) alkaline protease; (C) 26 kDa protease; and (D) deuterolysin. 50 ng quantities of TNF-α were incubated at 37° C. for 24 hours with the indicated quantities (∘=buffer alone; […]=5 ng; ▪=10 ng) of: protease powder prepared according to Example 1 (preparation); alkaline protease; 26 kDa protease; and deuterolysin. The reactions were then stopped by addition of FBS and samples were added to C2C12 cells that had been costimulated with mouse IFN-γ. Twenty-four hours later, nitrite was measured in culture fluids.
Protease-treated human TNF-α was then tested for its bioactivity in the C2C12 cell assay. […] (FIG. 12A-D)
The protease powder prepared according to Example 1 inactivates mouse recombinant TNF-α by limited proteolysis. (FIG. 16 A-B) This property was established by measuring the loss of activity of TNF-α in a bioassay in which the cytokine was used to coactivate mouse myoblast C2C12 cells for the production of NO by transcriptional activation of the inducible NO synthase (iNOS) gene. The assay can be used to measure either TNF-α or IFN-γ activity by adding test samples containing one of the cytokines to cells stimulated with an excess of the other cytokine. Nitrite is a stable endproduct of NO produced by the cells. […] (FIG. 16A-B).

[2] = molecular target: T1, human IFN-γ (Homo sapiens, UniProt P01579); experiment: Human IFN-γ degradation (Western blotting); format: biochemical; settings: Western blot, antibody to carboxyl terminus
T1 sequence (P01579 24-166): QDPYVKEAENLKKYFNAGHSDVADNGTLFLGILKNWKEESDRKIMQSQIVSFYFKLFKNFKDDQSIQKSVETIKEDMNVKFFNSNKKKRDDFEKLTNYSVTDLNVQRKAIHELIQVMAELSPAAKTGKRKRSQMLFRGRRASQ
Experimental: Effects of the purified A. oryzae proteases on human recombinant IFN-γ: (A) protease powder prepared according to Example 1 (preparation); (B) alkaline protease; (C) deuterolysin; and (D) 26 kDa protease. 50 ng quantities of human IFN-γ were incubated at 37° C. for 18 hours with the indicated quantities of preparation, alkaline protease, 26 kDa protease or deuterolysin. Western blotting was then used to determine substrate specificity. C=control, buffer-treated IFN-γ.
Cleavage was evidenced by the disappearance of the native 17 kDa IFN-γ band, rather than the appearance of distinct cleavage peptides. Because the antibody used in this Western blot was specific for the carboxyl terminus of human IFN-γ, these enzymes attack the cytokine at the C terminus (e.g., there is a loss in reactivity with the anti-cytokine antibody, rather than the appearance of smaller peptide products).

[3] = system: Salmon protamine; experiment: Hydrolysis of salmon protamine sulfate (ninhydrin assay); format: biochemical; settings: 20 mM Tris-HCl, pH 7 or 8, 30 min at 37° C.
Experimental: Specific activity of the purified enzymes was determined by measuring hydrolysis of protamine sulfate and D-val-leu-lys-pNA. For the former, enzyme-substrate mixtures were prepared in 20 mM Tris-HCl, pH 7 or 8, and incubated for 30 min at 37° C. After precipitation with 14% trichloroacetic acid and removal of precipitated protein by centrifugation, the reaction mixtures were diluted in 500 mM sodium citrate buffer, pH 5, combined with 2% ninhydrin and boiled for 30 min. After dilution in 50% isopropanol, absorbance was measured at 570 nm wavelength, and results were referenced to leucine as a standard. Hydrolysis of D-val-leu-lys-pNA in 20 mM Tris-HCl buffer, pH 7, was determined by measuring absorbance at 405 nm wavelength every 10 sec over 10 min and calculating the change in absorbance (mOD units) per min per μg protein.
Protamine sulfate from salmon (Sigma, St. Louis, Mo.): 1% (10 mg/ml) solution in reaction buffer. Fushima et al use 2% and denature the protein by boiling for 30 min in 100 mM phosphate buffer, pH 7.0. […]
Procedure • 1. […] Read Absorbance at 570 nm (purple color) and calculate nanomoles by reference to a standard curve prepared with leucine. […] Activity of enzyme is expressed as nanomoles of leucine equivalents released per milligram of protein (endpoint assay) or nanomoles of leucine equivalents/min/μg protein (kinetic assay). • 10. […]

[4] = system: spontaneous colitis; experiment: Spontaneous colitis in C3H/HeJBir mice; format: in vivo, mouse; settings: weeks 6-10 of life
From the text: This particular mouse strain develops a transmural Th1-, cytokine-dependent colitis similar to CD that begins at 3-6 wk of life and gradually wanes until it resolves at 3 months of age. T cells and Th1 cytokines (IL-112, IFN-γ and TNF-α) mediate the disease which is maintained by an ongoing reaction to microbial flora antigens.
C3H/HeJBir mice can be obtained at 5-6 wk of age from Jackson Labs. Mice can be divided into three groups, for example: Group 1 should receive no further treatment and may simply be monitored for clinical signs, including daily measurements of body weight and endpoint pathology. Group 2 should be administered alkaline protease in their drinking water at a dose of 10-25 mg/kg/week for one week. Group 3 should be administered alkaline protease in their drinking water (dose determined above) for two weeks. After 1 week (Group 2 and half of Group 1) or 2 weeks (Group 3 and half of Group 1), animals can be sacrificed and body weight changes and histopathological scores of inflammation and tissue damage (leukocyte infiltration, ulceration, abscesses and fibrosis), activated caspase-3 expression and TNF-α expression can be measured by methods known in the art.

B1: 26 kDa Protease: A. oryzae protease cloned recently by Novozyme, labeled the 26 kDa protease, SEQ ID NO: 3 (protein, listed as Aspergillus oryzae)
chain: HASADAWASSKAISSTSSPSSFKMRFISVSSLLLALAPALNAVPVEVAGSAQGLDVTLSQVGNTRIKAWKNTGSEDVTFVHLNFFKDAAPVQKVSLFRNATEVQFQGIKQRLITEGLSDDALTTLAPGATIEDEFDIASTSDLSEGGTITINSNGLVPITTDNKVTGYIPFTSNELSIDVDAAEAASVTQAVKILERRTKVTSCSGSRLSALQTALRNTVSLARAAATAAQSGSSSRFQEYFKTTSSSTRSTVAARLNAVANEAASTSSGSTTYYCSDVYGYCSSNVLAYTLPSYNIIANCDLYYSYLPALTSTCHAQDQATTTLHEFTHAPGVYSPGTDDLGYGYSAATALSASQALLNADTYALFANAVNLNC
Effect on bioactivity of human TNF-α [1]: did not significantly alter the biological activity of the cytokine
Cleavage of human IFN-γ [2]: cleave human IFN-γ
Specific activity, Salmon protamine [3]: 679 nmoles Leucine/30 min./μg protein

B2: Alkaline Protease: Aspergillus oryzae alkaline protease (oryzin), SEQ ID NO: 2, purified from the protease powder of Example 1 (protein, listed as Aspergillus oryzae)
chain: MQSIKRTLLLLGAILPAVLGAPVQETRRAAEKLPGKYIVTFKPGIDEAKIQEHTTWATNIHQRSLERRGATGGDLPVGIERNYKINKFAAYAGSFDDATIEEIRKNEDVAYVEEDQIYYLDGLTTQKSAPWGLGSISHKGQQSTDYIYDTSAGEGTYAYVVDSGVNVDHEEFEGRASKAYNAAGGQHVDSIGHGTHVSGTIAGKTYGIAKKASILSVKVFQGESSSTSVILDGFNWAANDIVSKKRTSKAAINMSLGGGYSKAFNDAVENAFEQGVLSVVAAGNENSDAGQTSPASAPDAITVAAIQKSNNRASFSNFGKVVDVFAPGQDILSAWIGSSSATNTISGTSMATPHIVGLSLYLAALENLDGPAAVTKRIKELATKDWKDVKGSPNLLAYNGNA
Effect on bioactivity of human TNF-α [1]: selectively inactivated human TNF-α
Inactivation of Human TNF-α ([1]; Table 7 summary): +
Cleavage of human IFN-γ [2]: did not cleave human IFN-γ
Weight loss and pathological lesions [4]: can correct the weight loss and the pathological lesions
Specific activity, Salmon protamine [3]: 951 nmoles Leucine/30 min./μg protein
